{"source": "patent US20240076392A1", "about": "(IGM BIOSCIENCES, published 2024)", "binders": {"B1": {"name": "32716 IgM (CD123xCD3 IgM antibody) (bispecific antibody)", "VH": "QIQLVQSGPELKKPGETVKISCKASGYIFTNYGMNWVKQAPGKSFKWMGWINTYTGESTYSADFKGRFAFSLETSASTAYLHINDLKNEDTATYFCARSGGYDPMDYWGQGTSVTVSS", "VL": "DIVLTQSPASLAVSLGQRATISCRASESVDNYGNTFMHWYQQKPGQPPKLLIYRASNLESGIPARFSGSGSRTDFTLTINPVEADDVATYYCQQSNEDPPTFGAGTKLELK", "J-chain": "not shown", "notes": "Pentameric IgM with J-chain; also called original mouse antibody"}, "B2": {"name": "h32716-1-1 IgM (CD123xCD3 IgM antibody) (bispecific antibody)", "VH": "QVQLVQSGAEVKKPGSSVKVSCKASGYIFTNYGMNWVRQAPGQGLEWMGWINTYTGESTYSADFKGRVTITADESTSTAYMELSSLRSEDTAVYYCARSGGYDPMDYWGQGTLVTVSS", "VL": "DIVMTQSPDSLAVSLGERATINCRASESVDNYGNTFMHWYQQKPGQPPKLLIYRASNLESGVPDRFSGSGSGTDFTLTISSLQAEDVAVYYCQQSNEDPPTFGQGTRLEIK", "chain": "not shown", "notes": "Pentameric IgM with modified J-chain"}, "B3": {"name": "h32716-4-2 IgM (CD123xCD3 IgM antibody) (bispecific antibody)", "VH": "QVQLVQSGPELKKPGASVKVSCKASGYIFTNYGMNWVRQAPGQGLEWMGWINTYTGESTYSADFKGRFVFSLDTSVSTAYLQISSLKAEDTAVYYCARSGGYDPMDYWGQGTLVTVSS", "VL": "DIQMTQSPSSLSASVGDRVTITCRASESVDNYGNTFMHWYQQKPGKAPKLLIYRASNLESGVPSRFSGSGSGTDFTFTISSLQPEDIATYYCQQSNEDPPTFGQGTKVEIK", "chain": "not shown", "notes": "as for B2"}, "B4": {"name": "32716 IgG (antibody, V domains shown)", "VH": "B1 VH", "VL": "B1 VL", "notes": "Parental mouse variable domains cloned into human IgG format; detected with anti-human kappa; also called original mouse antibody"}, "B5": {"name": "h32716-2-1 IgG (antibody, V domains shown)", "VH": "B2 VH with R38K, V68F, I70F, A72L", "VL": "B2 VL", "notes": "Human IgG format"}, "B6": {"name": "h32716-3-1 IgG (antibody, V domains shown)", "VH": "B2 VH with R38K, L45F, E46K, V68F, I70F, A72L", "VL": "B2 VL", "notes": "Human IgG format"}, "B7": {"name": "h32716-1-1 IgG (antibody, V domains shown)", "VH": "B2 VH", "VL": "B2 VL", "notes": "Human IgG format"}, "B8": {"name": "h32716-5-2 IgG (antibody, V domains shown)", "VH": "B3 VH with R38K", "VL": "B3 VL", "notes": "Human IgG format"}, "B9": {"name": "h32716-6-2 IgG (antibody, V domains shown)", "VH": "B3 VH with R38K, L45F, E46K", "VL": "B3 VL", "notes": "Human IgG format"}, "B10": {"name": "h32716-4-2 IgG (antibody, V domains shown)", "VH": "B3 VH", "VL": "B3 VL", "notes": "Human IgG format"}}, "note": "Numbering of substitutions follows the chain as printed.", "data": [{"biological_target": "T1, recombinant human CD123 protein (CD123, Fc-Fusion (IgG1) Avi-Tag, Biotin-Labeled, BPS Bioscience Cat.100068-2) (human, UniProt P26951 19-305, limits assumed, biotin-labeled (Avi-Tag))", "T1 construct": "Bought protein; not shown: IgG1 Fc; Avi-Tag", "T1 sequence (looked up)": "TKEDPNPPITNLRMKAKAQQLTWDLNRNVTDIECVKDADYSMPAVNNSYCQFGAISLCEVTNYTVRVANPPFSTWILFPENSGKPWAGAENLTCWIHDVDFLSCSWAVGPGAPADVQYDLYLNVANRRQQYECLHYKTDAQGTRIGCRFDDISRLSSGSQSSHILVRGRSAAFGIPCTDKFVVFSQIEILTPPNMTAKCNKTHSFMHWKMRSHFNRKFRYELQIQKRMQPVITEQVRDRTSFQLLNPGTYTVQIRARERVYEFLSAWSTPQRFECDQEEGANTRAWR", "test": "BLI (Octet), CD123-Fc on anti-human Fc sensors, IgM in solution", "units": {"Kd": "nM", "koff": "s⁻¹", "kon": "M⁻¹ s⁻¹"}, "values": [{"binder": "B1", "Kd": "< 0.001", "koff": "< 1e-07", "kon": "4.1e+06"}, {"binder": "B2", "Kd": "< 0.001", "koff": "< 1e-07", "kon": "3.9e+06"}, {"binder": "B3", "Kd": 0.00443, "koff": "1.69e-05", "kon": "3.82e+06"}]}, {"biological_target": "T2, recombinant human CD123 protein (CD123)-His Acrobio #ILA-H52H6 (human, UniProt P26951 19-305)", "T2 construct": "Bought protein; also called hu IL-3R alpha (CD123)-His; not shown: His tag", "T2 sequence (looked up)": "T1 sequence (looked up)", "test": "BLI (Octet), CD123-His on anti-penta-His sensors, IgG in solution, 1:1 global fit", "protocol": "PBST (1×PBS+1% BSA+0.05% Tween-20) buffer was used as Antibody/CD123 dilution and sensor hydration buffer. The experiment followed a five-step sequential assay at 24° C. First, biosensors were hydrated for 10 minutes. Samples and buffer were applied in 384-well plate. After initial baseline for 60 s, sensors were loaded with 7 nM hu IL-3R alpha (CD123)-His Acrobio #ILA-H52H6. The biosensors were dipped into PBST for 20 s to reach baseline, then incubated for 420 s with 2-fold serial diluted anti-CD123 antibodies starting at 10 nM for association, followed by 900 s in PBST for dissociation. Results were analyzed by ForteBio Data Analysis software 9.0 using 1:1 global fit model.", "units": {"Kd": "nM", "koff": "s⁻¹", "kon": "M⁻¹ s⁻¹"}, "values": [{"binder": "B4", "Kd": 0.44, "koff": 0.0003, "kon": 710000}, {"binder": "B5", "Kd": 0.45, "koff": 0.00049, "kon": "1.1e+06"}, {"binder": "B6", "Kd": 0.25, "koff": 0.00031, "kon": "1.2e+06"}, {"binder": "B7", "Kd": 0.36, "koff": 0.0004, "kon": 940000}, {"binder": "B8", "Kd": 0.71, "koff": 0.00045, "kon": 700000}, {"binder": "B9", "Kd": 0.33, "koff": 0.0002}, {"binder": "B10", "Kd": 0.6, "koff": 0.00046, "kon": 770000}]}, {"biological_target": "T3, Human CD123", "T3 construct": "It is a different reagent from m11 (Acro, His) and m13 (BPS, Fc); also called recombinant human CD123 protein (Sino Biological 10518-H08H-50); not shown: The tag of the vendor's product", "T3 chain": "T1 sequence (looked up)", "test": "ELISA, plate coated with 0.2 ug/mL recombinant human CD123 (Sino Biological), detection with HRP anti-human kappa, chemiluminescence", "protocol": "96-well white polystyrene ELISA plates (Pierce 15042) were coated with 100 μL per well of 0.2 μg/mL recombinant human CD123 protein (Sino Biological 10518-H08H-50) or 0.5 μg/ml recombinant human CD3ε protein (Acro Biosystems, CDE-H5256-100) overnight at 4° C. Plates were then washed 5 times with 0.05% PBS-Tween and blocked with 2% BSA-PBS. After blocking, 100 μL of serial dilutions of CD123×CD3 IgM antibodies, standards, and controls were added to the wells and incubated at room temperature for 2 hours. The plates were then washed 10 times and incubated with HRP conjugated mouse anti-human kappa (Southern Biotech, 9230-05. 1:6000 diluted in 2% BSA-PBS) for 30 min. After 10 final washes using 0.05% PBS-Tween, the plates were read out using SuperSignal chemiluminescent substrate (ThermoFisher, 37070). Luminescent data were collected on an EnVision plate reader (Perkin-Elmer) and analyzed with GraphPad Prism using a 4-parameter logistic model.", "units": {"EC50 (read off the curve)": "nM"}, "values": [{"binder": "B1", "EC50 (read off the curve)": "~0.03"}, {"binder": "B2", "EC50 (read off the curve)": "0.1 to 0.2"}, {"binder": "B3", "EC50 (read off the curve)": "~0.08"}]}]}
